In patent US20170145090A1:

Target: Human OSM (in-house, OSMN1-1) (human) (UniProt P13725)
Assay: cell-based or functional assay

Sequence of Human OSM (in-house, OSMN1-1) (human) (P13725 26-221 limits assumed): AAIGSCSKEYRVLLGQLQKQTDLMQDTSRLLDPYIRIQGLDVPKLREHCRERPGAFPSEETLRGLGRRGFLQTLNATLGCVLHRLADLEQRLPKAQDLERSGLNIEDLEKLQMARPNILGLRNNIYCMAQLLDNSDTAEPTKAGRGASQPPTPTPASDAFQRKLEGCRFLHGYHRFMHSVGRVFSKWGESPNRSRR

- pSTAT3 inhibition EC50 (ng/ml), A375 cells, 5 ng/ml hOSM: 72.1 ng/ml
Substance: MAB295 (R&D Systems) (antibody)
